Experimental data as given in patent US20130064834A1 (published 2013).

T1: Chimeric protein #1 (mPro-hCat-mC-term-mmh) (mouse; human, UniProt Q80W65 35-694)
T1 chain: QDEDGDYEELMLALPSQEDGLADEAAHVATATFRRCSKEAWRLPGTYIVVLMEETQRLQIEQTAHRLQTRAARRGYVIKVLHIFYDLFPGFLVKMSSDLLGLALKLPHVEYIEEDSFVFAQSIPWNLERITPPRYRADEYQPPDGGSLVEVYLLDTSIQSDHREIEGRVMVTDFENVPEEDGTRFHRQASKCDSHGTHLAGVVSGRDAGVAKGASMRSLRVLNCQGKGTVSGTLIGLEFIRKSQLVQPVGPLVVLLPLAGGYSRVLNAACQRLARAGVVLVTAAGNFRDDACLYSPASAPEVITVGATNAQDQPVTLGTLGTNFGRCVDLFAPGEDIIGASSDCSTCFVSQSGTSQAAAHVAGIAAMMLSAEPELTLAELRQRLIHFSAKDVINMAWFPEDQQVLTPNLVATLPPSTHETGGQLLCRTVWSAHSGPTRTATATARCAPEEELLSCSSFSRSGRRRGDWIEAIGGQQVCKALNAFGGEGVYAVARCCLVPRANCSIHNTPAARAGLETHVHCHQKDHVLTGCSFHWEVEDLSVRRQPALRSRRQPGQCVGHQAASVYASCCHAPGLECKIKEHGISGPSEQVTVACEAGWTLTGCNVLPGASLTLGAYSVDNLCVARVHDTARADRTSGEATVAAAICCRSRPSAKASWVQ

T2: his-tagged Syrian golden hamster (Mesocricetus auratus) PCSK9 (Syrian golden hamster (Mesocricetus …))
T2 construct: also called maPCSK9-h; maPCSK9
T2 chain: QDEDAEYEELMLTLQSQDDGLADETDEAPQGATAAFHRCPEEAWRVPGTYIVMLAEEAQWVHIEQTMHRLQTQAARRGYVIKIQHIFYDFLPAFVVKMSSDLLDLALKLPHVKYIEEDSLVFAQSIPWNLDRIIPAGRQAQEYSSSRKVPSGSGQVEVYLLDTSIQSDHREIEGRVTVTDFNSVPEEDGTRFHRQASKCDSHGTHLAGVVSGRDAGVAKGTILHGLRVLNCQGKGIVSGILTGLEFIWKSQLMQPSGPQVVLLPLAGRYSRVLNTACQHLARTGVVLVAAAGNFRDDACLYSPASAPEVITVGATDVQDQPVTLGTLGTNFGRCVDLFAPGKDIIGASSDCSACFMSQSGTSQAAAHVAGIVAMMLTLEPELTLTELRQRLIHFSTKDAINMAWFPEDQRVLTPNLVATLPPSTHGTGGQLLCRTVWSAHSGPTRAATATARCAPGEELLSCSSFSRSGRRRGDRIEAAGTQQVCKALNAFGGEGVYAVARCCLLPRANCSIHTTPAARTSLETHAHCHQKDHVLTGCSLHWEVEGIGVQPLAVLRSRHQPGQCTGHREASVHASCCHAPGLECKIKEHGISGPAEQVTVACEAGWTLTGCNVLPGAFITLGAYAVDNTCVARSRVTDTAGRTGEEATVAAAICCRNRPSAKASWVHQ

B1: H1H316P (antibody, V domains shown)
VH: EVQLVESGGGLVQPGGSLRLSCAASGFTFNNYAMNWVRQAPGKGLDWVSTISGSGGTTNYADSVKGRFIISRDSSKHTLYLQMNSLRAEDTAVYYCAKDSNWGNFDLWGRGTLVTVSS
VL: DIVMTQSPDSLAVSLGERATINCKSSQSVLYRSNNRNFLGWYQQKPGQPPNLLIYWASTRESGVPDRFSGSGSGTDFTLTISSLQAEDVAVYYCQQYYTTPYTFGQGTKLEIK
notes: Fully human mAb made in CHO cells; also called mAb316P
B2: H1M300N (antibody, V domains shown)
VH: EMQLVESGGGLVQPGGSLRLSCAASGFTFSSHWMKWVRQAPGKGLEWVANINQDGSEKYYVDSVKGRFTISRDNAKNSLFLQMNSLRAEDTAVYYCARDIVLMVYDMDYYYYGMDVWGQGTTVTVSS
VL: not shown
notes: Fully human version made in CHO cells

Tests used:
Human PCSK9-myc-myc-his [1] = target: T3, Human PCSK9-myc-myc-his (human, UniProt Q8NBP7 31-692); test: competition ELISA vs EGF-A-hFc, pH 5.5
T3 construct: also called hPCSK9-mmh; hPCSK9
Experimental: (§1) Briefly, hLDLR-ecto, hLDLR EGF-A-hFc or hLDLR EGF-AB-hFc, each at 2 μg/ml, was coated on a 96-well plate in PBS buffer overnight at 4° C., and nonspecific binding sites blocked with BSA. […] The equilibrated sample solutions were transferred to receptor or receptor fragment coated plates.

[2] = target: Chimeric protein #2 (hPro-mCat-mC-term-mmh) (human; mouse, UniProt Q80W65 19-694); test: SPR, mAb captured on anti-hFc, 100 nM antigen
Experimental: (§2) Changes in RU due to the binding of each protein to the mAb surface was determined.

[3] = target: T1, Chimeric protein #1 …; test: SPR, mAb captured on anti-hFc, 100 nM antigen
Experimental: as §2

[4] = target: T4, mouse PCSK9, myc-myc-his tagged (mouse, UniProt Q80W65 35-694); test: SPR, mAb captured on anti-hFc, 100 nM antigen
T4 construct: also called mPCSK9-mmh; mPCSK9
Experimental: as §2

Human PCSK9-myc-myc-his [5] = target: T3, Human PCSK9-myc-myc-his; test: SPR, antigen captured at high density, pH 5.5, 25C
hPCSK9(D374Y)-mmh = target: T5, hPCSK9(D374Y)-mmh (human, UniProt Q8NBP7 31-692); test: SPR, mAb captured on anti-human IgG, 25C
T5 construct: also called hPCSK(D374Y)-mmh

[6] = target: T6, tagged rhesus monkey (Macaca mulata) PCSK9 (rhesus monkey (Macaca mulata), UniProt A8T666 31-692); test: competition ELISA vs EGF-A-hFc, pH 7.2
T6 construct: also called mmPCSK9-mmh; mmPCSK9
T6 sequence (A8T666 31-692 limits assumed): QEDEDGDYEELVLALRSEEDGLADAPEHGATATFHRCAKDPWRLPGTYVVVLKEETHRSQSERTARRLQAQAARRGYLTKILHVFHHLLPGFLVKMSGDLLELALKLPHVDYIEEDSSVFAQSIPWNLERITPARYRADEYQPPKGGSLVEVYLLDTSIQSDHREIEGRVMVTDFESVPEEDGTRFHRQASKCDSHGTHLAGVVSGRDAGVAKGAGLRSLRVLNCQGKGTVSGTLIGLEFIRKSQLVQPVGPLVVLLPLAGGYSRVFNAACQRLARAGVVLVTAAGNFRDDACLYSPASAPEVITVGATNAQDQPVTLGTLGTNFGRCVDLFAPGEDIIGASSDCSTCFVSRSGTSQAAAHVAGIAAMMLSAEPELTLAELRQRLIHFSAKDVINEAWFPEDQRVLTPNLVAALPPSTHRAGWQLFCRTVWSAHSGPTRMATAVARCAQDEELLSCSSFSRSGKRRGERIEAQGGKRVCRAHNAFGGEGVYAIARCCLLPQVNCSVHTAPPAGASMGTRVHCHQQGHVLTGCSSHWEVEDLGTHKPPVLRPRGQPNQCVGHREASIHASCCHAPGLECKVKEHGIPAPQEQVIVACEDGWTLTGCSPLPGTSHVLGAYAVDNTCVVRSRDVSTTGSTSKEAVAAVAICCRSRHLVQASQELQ
Experimental: as §1

[7] = target: T4, mouse PCSK9, myc-myc-his tagged; test: competition ELISA vs EGF-A-hFc, pH 7.2
Experimental: as §1

Human PCSK9-myc-myc-his [8] = target: T3, Human PCSK9-myc-myc-his; test: SPR, antigen captured at low density, pH 5.5, 25C
[9] = target: T6, tagged rhesus monkey (Macaca mulata) …; test: competition ELISA vs EGF-A, pH 7.2
Experimental: as §1

[10] = target: T2, his-tagged Syrian golden hamster …; test: competition ELISA vs EGF-A, pH 7.2
Experimental: as §1

[11] = target: T4, mouse PCSK9, myc-myc-his tagged; test: competition ELISA vs EGF-A, pH 7.2
Experimental: as §1

Human PCSK9-myc-myc-his [12] = target: T3, Human PCSK9-myc-myc-his; test: competition ELISA vs EGF-A, pH 7.2
Experimental: as §1

[13] = target: T7, rat (Rattus norvegicus) PCSK9, myc-myc-his tagged (rat (Rattus norvegicus), UniProt P59996 31-691); test: competition ELISA vs EGF-A, pH 7.2
T7 construct: also called rPCSK9-mmh; rPCSK9
T7 sequence (P59996 31-691 limits assumed): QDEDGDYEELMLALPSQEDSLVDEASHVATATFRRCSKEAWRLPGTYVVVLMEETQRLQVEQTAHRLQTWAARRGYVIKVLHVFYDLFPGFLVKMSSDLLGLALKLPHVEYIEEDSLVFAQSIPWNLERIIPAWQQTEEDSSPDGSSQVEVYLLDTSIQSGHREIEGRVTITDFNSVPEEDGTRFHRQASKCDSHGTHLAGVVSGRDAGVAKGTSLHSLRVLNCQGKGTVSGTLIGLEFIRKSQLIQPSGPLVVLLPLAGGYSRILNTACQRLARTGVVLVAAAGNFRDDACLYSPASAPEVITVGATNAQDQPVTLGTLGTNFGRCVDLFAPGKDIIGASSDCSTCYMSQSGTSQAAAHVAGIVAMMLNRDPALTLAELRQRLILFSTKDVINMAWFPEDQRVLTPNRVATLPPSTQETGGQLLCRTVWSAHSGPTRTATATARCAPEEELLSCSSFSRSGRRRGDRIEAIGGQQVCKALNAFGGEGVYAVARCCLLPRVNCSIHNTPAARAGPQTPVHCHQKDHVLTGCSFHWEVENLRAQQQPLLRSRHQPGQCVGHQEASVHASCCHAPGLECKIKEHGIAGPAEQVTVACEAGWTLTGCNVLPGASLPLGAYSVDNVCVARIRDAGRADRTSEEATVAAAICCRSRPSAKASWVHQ
Experimental: as §1

[14] = target: T8, cynomolgus monkey (Macaca fascicularis) PCSK9, myc-myc-his tagged (cynomolgus monkey (Macaca fascicularis), UniProt A8T662 31-692 (Macaca nemestrina entry), limits assumed); test: competition ELISA vs EGF-A, pH 7.2
T8 construct: also called mfPCSK9-mmh; mfPCSK9
T8 sequence (A8T662 31-692 limits assumed): as the sequence (A8T666 31-692 limits assumed) above, with P607A, K639E counted along it
Experimental: as §1

[15] = target: T6, tagged rhesus monkey (Macaca mulata) …; test: competition ELISA vs hLDLR-ecto, pH 7.2
Experimental: as §1

Binder | IC50 (Human PCSK9-myc-myc-his [1]) | change in RU [2] | change in RU [3] | change in RU [4] | Kd (Human PCSK9-myc-myc-his [5]) | T1/2 (Human PCSK9-myc-myc-his [5]) | Kd (hPCSK9(D374Y)-mmh) | T1/2 (hPCSK9(D374Y)-mmh) | IC50 [6] | IC50 [7] | Kd (Human PCSK9-myc-myc-his [8]) | T1/2 (Human PCSK9-myc-myc-his [8]) | IC50 [9] | IC50 [10] | IC50 [11] | IC50 (Human PCSK9-myc-myc-his [12]) | IC50 [13] | IC50 [14] | IC50 [15]
B1 | < 0.125 nM | 451 RU | 529 RU | 505 RU | 0.144 nM | 83 min | 1.78 nM | 14 min | < 0.25 nM | < 0.25 nM | 0.188 nM | 58 min | < 0.25 nM | 0.349 nM | 0.305 nM | < 0.125 nM | 2.66 nM | 0.075 nM | < 0.25 nM
B2 | 0.538 nM | 76 RU | 243 RU | 13 RU | 1.18 nM | 26 min | 1.06 nM | 49 min | 0.256 nM | > 33 nM | 1.38 nM | 13 min | 0.46 nM | > 100 nM | > 100 nM | 0.182 nM | > 100 nM | 0.473 nM | 0.255 nM
